According to US20150246959A1 (published 2015):
Blank lines part the entries; values can stand above or below the binder they belong to.

Columns and labels:
[1] = target: T1, MAGE-A12 peptide on HLA-DPB1*04:01 (human); test: cytokine release
T1 peptide: KKLLTQDLVQENYLEY

[2] = target: T2, MAGE-A1 peptide on HLA-DPB1*04:01 (human); test: cytokine release
T2 peptide: KKLLTQDLVQEKYLEY

[3] = target: T3, MAGE-A3 peptide on HLA-DPB1*04:01 (human); test: cytokine release
T3 peptide: KKLLTQHFVQENYLEY

[4] = target: T4, MAGE-A2/A12 peptide on HLA-DPB1*04:01 (human); test: cytokine release
T4 peptide: QDLVQENYLEY

[5] = target: T5, MAGE-B2 peptide on HLA-DPB1*04:01 (human); test: cytokine release
T5 peptide: KDLVQEKYLEY

[6] = target: T6, MAGE-A3 peptide on HLA-DPB1*04:01 (human); test: cytokine release
T6 peptide: KKLLTQHFVQE

[7] = target: T7, MAGE-A3 peptide on HLA-DPB1*04:01 (human); test: cytokine release
T7 peptide: QHFVQENYLEY

[8] = target: T8, MAGE-A6 peptide on HLA-DPB1*04:01 (human); test: cytokine release
T8 peptide: QYFVQENYLEY

[9] = target: T9, MAGE-A3 peptide on HLA-DPB1*04:02 (human); test: cytokine release
T9 peptide: QHFVQENYLEY

[10] = target: T10, MAGE-C1 peptide on HLA-DPB1*04:01 (human); test: cytokine release
T10 peptide: KVWVQEHYLEY

[11] = target: T11, MAGE-A8 peptide on HLA-DPB1*04:01 (human); test: cytokine release
T11 peptide: QEWVQENYLEY

[12] = target: T12, MAGE-A4/A9 peptide on HLA-DPB1*04:01 (human); test: cytokine release
T12 peptide: QDWVQENYLEY

[13] = target: T13, Necdin peptide on HLA-DPB1*04:01 (human); test: cytokine release
T13 peptide: EEFVQMNYLKY

[14] = target: T14, MAGE-A3 peptide on HLA-DPB1*04:01 (human); test: cytokine release
T14 peptide: KKLLTQHFVQEN

[15] = target: T15, MAGE-A3 peptide on HLA-DPB1*04:01 (human); test: cytokine release
T15 peptide: LTQHFVQENYLEY

[16] = target: T16, MAGE-A3 peptide on HLA-DPB1*04:01 (human); test: cytokine release
T16 peptide: TQHFVQENYLEY

[17] = target: T17, MAGE-B10 peptide on HLA-DPB1*04:01 (human); test: cytokine release
T17 peptide: KDLVKENYLEY

[18] = target: T18, MAGE-L2 peptide on HLA-DPB1*04:01 (human); test: cytokine release
T18 peptide: KKLITEVFVRQKYLEY

[19] = target: T19, MAGE-B16 peptide on HLA-DPB1*04:01 (human); test: cytokine release
T19 peptide: KDFVKEKYLEY

[20] = target: T20, MAGE-A3 peptide on HLA-DPB1*04:01 (human); test: cytokine release
T20 peptide: LLTQHFVQENYLEY

[21] = target: T21, MAGE-G1 peptide on HLA-DPB1*04:01 (human); test: cytokine release
T21 peptide: KKLITEDFVRQRYLEY

[22] = target: T3, MAGE-A3 peptide on HLA-DPB1*04:01; test: multimer staining

- binding result [1]: no recognition
- binding result [2]: no recognition
- binding result [3]: recognises
B1: R12C9 TCR (TCR, V domains shown)
Valpha: AQTVTQSQPEMSVQEAETVTLSCTYDTSESDYYLFWYKQPPSRQMILVIRQEAYKQQNATENRFSVNFQKAAKSFSLKISDSQLGDAAMYFCAYTVPSNAGGTSYGKLTFGQGTILTVHP
Vbeta: EPEVTQTPSHQVTQMGQEVILRCVPISNHLYFYWYRQILGQKVEFLVSFYNNEISEKSEIFDDQFSVERPDGSNFTLKIRSTKLEDSAMYFCASSERGQGYGYTFGSGTRLTVV

- binding result [4]: no recognition
- binding result [1]: no recognition
- binding result [5]: no recognition
- binding result [6]: no recognition
- binding result [7]: recognises
- binding result [2]: no recognition
- binding result [8]: recognises
- binding result [9]: recognises
- binding result [10]: no recognition
- binding result [11]: no recognition
- binding result [12]: no recognition
- binding result [13]: no recognition
- binding result [14]: no recognition
- binding result [15]: recognises
- binding result [16]: recognises
- binding result [17]: no recognition
- binding result [18]: no recognition
- binding result [19]: no recognition
- binding result [20]: recognises
- binding result [21]: no recognition
- binding result [22]: recognises
B2: 6F9 TCR (TCR, V domains shown)
Valpha: AQTVTQSQPEMSVQEAETVTLSCTYDTSESDYYLFWYKQPPSRQMILVIRQEAYKQQNATENRFSVNFQKAAKSFSLKISDSQLGDAAMYFCALRSSGTYKYIFGTGTRLKVLA
Vbeta: GAGVSQSPSNKVTEKGKDVELRCDPISGHTALYWYRQSLGQGLEFLIYFQGNSAPDKSGLPSDRFSAERTGGSVSTLTIQRTQQEDSAVYLCASIRTGPFFSGNTIYFGEGSWLTVV
